Laboratory results: patent US20240360203A1
Like-named read-outs stand apart in the source and are kept apart here.

Columns and labels:
Test in all cases: cell-based or functional assay
[1] = biological target: SARS-CoV-2 D614G spike protein (SARS-CoV-2) (UniProt P0DTC2)
[2] = biological target: SARS-CoV-2 BA.1.1 + P1162S spike protein (SARS-CoV-2)
[3] = biological target: SARS-CoV-2 BA.5.8 + P1162L spike protein (SARS-CoV-2)
[4] = biological target: SARS-CoV-2 BA.4/5+K444T Spike on pseudovirus (SARS-CoV-2) (UniProt P0DTC2)
[5] = biological target: SARS-CoV-2 D614G spike protein (SARS-CoV-2) (UniProt P0DTC2); remark: listed apart in the source
[6] = biological target: SARS-CoV-2 D614G spike protein (SARS-CoV-2) (UniProt P0DTC2); remark: listed apart in the source
[7] = biological target: SARS-CoV-2 D614G spike protein (SARS-CoV-2) (UniProt P0DTC2); remark: listed apart in the source
[8] = biological target: SARS-CoV-2 D614G spike protein (SARS-CoV-2) (UniProt P0DTC2); remark: listed apart in the source

Q: How did the pseudovirus neutralization EC50, Vero E6 [1] turn out when Sotrovimab VH/VL-huIgG1 (antibody) was run?
A: 27.9 ng/mL

Q: What does the source list for Bebtelovimab (antibody)?
A: pseudovirus neutralization EC50 [2]: 0.12 ng/mL; pseudovirus neutralization EC80 [2]: 1.4 ng/mL; pseudovirus neutralization EC90 [2]: 6 ng/mL; pseudovirus neutralization Emax (% neutralization) [2]: 100; pseudovirus neutralization EC50 [3]: 0.13 ng/mL; pseudovirus neutralization EC80 [3]: 1.1 ng/mL; pseudovirus neutralization EC90 [3]: 3.7 ng/mL; pseudovirus neutralization Emax (% neutralization) [3]: 99.9; pseudovirus neutralization EC50 [1]: 0.57 ng/mL; pseudovirus neutralization EC50, TMPRSS2-Vero E6 (bebtelovimab + isotype) [1]: 1.7 ng/mL; pseudovirus neutralization EC50, Vero E6 (bebtelovimab + isotype) [1]: 0.64 ng/mL; pseudovirus neutralization EC80 [1]: 4.9 ng/mL; pseudovirus neutralization EC80, TMPRSS2-Vero E6 (bebtelovimab + isotype) [1]: 11 ng/mL; pseudovirus neutralization EC80, Vero E6 (bebtelovimab + isotype) [1]: 2.7 ng/mL; pseudovirus neutralization EC90 [1]: 18 ng/mL; pseudovirus neutralization EC90, TMPRSS2-Vero E6 (bebtelovimab + isotype) [1]: 32 ng/mL; pseudovirus neutralization EC90, Vero E6 (bebtelovimab + isotype) [1]: 6.1 ng/mL; pseudovirus neutralization Emax (% neutralization) [1]: 99.9; pseudovirus neutralization Emax, TMPRSS2-Vero E6 (bebtelovimab + isotype) (% neutralization) [1]: 99.4; pseudovirus neutralization Emax, Vero E6 (bebtelovimab + isotype) (% neutralization) [1]: 99.4; IC50, pseudovirus neutralization [4]: 1220 ng/mL; pseudovirus neutralization EC50, Vero E6 (bebtelovimab + isotype) [5]: 0.29 ng/mL; pseudovirus neutralization EC80, Vero E6 (bebtelovimab + isotype) [6]: 2.9 ng/mL; pseudovirus neutralization EC90, Vero E6 (bebtelovimab + isotype) [7]: 11 ng/mL; pseudovirus neutralization Emax, Vero E6 (bebtelovimab + isotype) (% neutralization) [8]: 99.7

Q: What does the source list for Sotrovimab VH/VL-huIgG1-LS (antibody)?
A: pseudovirus neutralization EC50, Vero E6 [1]: 35.2 ng/mL; pseudovirus neutralization EC50, Vero E6 (sotrovimab VH/VL-huIgG1-LS + isotype) [5]: 14 ng/mL; pseudovirus neutralization EC80, Vero E6 (sotrovimab VH/VL-huIgG1-LS + isotype) [6]: 69 ng/mL; pseudovirus neutralization EC90, Vero E6 (sotrovimab VH/VL-huIgG1-LS + isotype) [7]: 170 ng/mL; pseudovirus neutralization Emax, Vero E6 (sotrovimab VH/VL-huIgG1-LS + isotype) (% neutralization) [8]: 98.3

Q: With “Sotrovimab VH/VL (human IgG1 molecule expressing the same variable regions of Sotrovimab) (antibody)” as the substance, how does the IC50, pseudovirus neutralization [4] read?
A: 304 ng/mL

Q: Which pseudovirus neutralization EC50, Vero E6 [1] does the source give for Sotrovimab VH/VL-hamIgG2a (antibody) here?
A: 8.51 ng/mL
